Measurements: WO2006085967A2 (dated 2006)

What was measured:
[1] = target: T1, extracellular region of human V158 FcγRIIIa with C-terminal 6x His-tag and GST-tag (human, UniProt P08637 17-208); test: only one value in the row
T1 construct: extracellular domain; on glutathione acceptor beads (AlphaScreen) or immobilized on the SPR chip; also called Val158 FcγRIIIa; V158 FcγRllla; not shown: 6x His-tag; GST-tag

[2] = target: T1, extracellular region of human V158 …; test: SPR; receptor immobilized, antibody flowed
[3] = target: T1, extracellular region of human V158 …; test: AlphaScreen competition; fold affinity vs WT
[4] = target: T1, extracellular region of human V158 …; test: SPR; fold affinity vs WT
[5] = target: T1, extracellular region of human V158 …; test: AlphaScreen competition; fold affinity vs WT (read as two values, 1 and 1.86; could be 11.86)
[6] = target: T1, extracellular region of human V158 …; test: SPR; fold affinity vs WT (read as two values, 1 and 1.86; could be 11.86)

B1: V284E alemtuzumab (antibody)
chain 1: not shown
chain 2: not shown
In the case of B1, the “Fold WT (AlphaScreen or SPR)” value [1] is reported as 1.51 fold.

B2: WT alemtuzumab (antibody)
chain 1: not shown
chain 2: not shown
B2 showed a Kd [2] of 0.068 µM.

B3: E272R alemtuzumab (antibody)
chain 1: not shown
chain 2: not shown
In the case of B3, the “Fold WT (AlphaScreen or SPR)” value [1] is reported as 1.38 fold.

B4: E283H alemtuzumab (antibody)
chain 1: not shown
chain 2: not shown
In the case of B4, the “Fold WT (AlphaScreen or SPR)” value [1] is reported as 2.31 fold.

B5: S304T alemtuzumab (antibody)
chain 1: not shown
chain 2: not shown
B5 was tested, and the “Fold WT (AlphaScreen or SPR)” value [1] was 12.8 fold.

B6: E258Y alemtuzumab (antibody)
chain 1: not shown
chain 2: not shown
In the case of B6, the “Fold WT (AlphaScreen)” value [3] is reported as 0.64 fold and the “Fold WT (SPR)” value [4] is reported as 1.77 fold.

B7: T260H alemtuzumab (antibody)
chain 1: not shown
chain 2: not shown
B7 was tested, and the “Fold WT (AlphaScreen)” value [5] was 1 fold and the “Fold WT (SPR)” value [6] was 1.86 fold.
